Tests used:
Type in all cases: in vivo, human
[1] = system: RCC and OVC subjects; experiment: Phase 1 dose escalation part: safety and tolerability (TEAEs, DLT, RDE)
Procedure: (§1) The dose escalation part of the Phase 1 study was a multicenter, open-label, multiple-dose, first-in-human study of DS-6000a, which enrolled subjects in the United States (see clinicaltrials.gov identifier NCT 04707248). DS-6000a was administered intravenously every 3 weeks. In the dose escalation part, RCC and OVC subjects were enrolled and dose-limiting toxicity (DLT) was assessed during Cycle 1.
The primary objective of the dose escalation part was to investigate the safety and tolerability and determine the maximum-tolerated dose (MTD) and/or recommended dose for expansion (RDE).
(§2) Patient assessments included echocardiogram or multigated acquisition scan, 12-lead electrocardiogram, AEs, PK, human anti-human antibodies, biomarkers, and tumor assessments at prespecified visits. The demographic and baseline characteristics of the patient enrolled in this dose escalation part of the Phase 1 study are shown in FIG. 2.
(§3) For this dose escalation part of the Phase 1 study, Bayesian optimal interval (BOIN) design was used to estimate the MTD. Accelerated titration, treat a single subject at a dose level, was performed until any DLT or ≥Grade 2 AE possibly related to DS-6000a (excluding infusion-related reactions) is observed during Cycle 1. Objective response rate (ORR), clinical benefit rate (CBR), and disease control rate (DCR) were summarized with 95% confidence intervals (CI) using the Clopper-Pearson method; duration of response (DOR) and progression-free survival (PFS) were summarized using the Kaplan-Meier method. Safety endpoints, PK parameters and plasma anti-drug antibodies were summarized using descriptive statistics.

[2] = system: CA-125; experiment: Phase 1 dose escalation part: CA-125 response (GCIG criteria)
Excerpt: (§4) Secondary objectives included characterizing the pharmacokinetic (PK) properties of DS-6000a, total anti-CDH6 antibody, drug component and assessing the immunogenicity. Exploratory objectives included evaluating biomarker that correlate with efficacy and disease assessment in OVC using Gynecologic Cancer Intergroup (GCIG) criteria.

[3] = system: RCC and OVC subjects; experiment: Phase 1 dose escalation and expansion parts as of new cut-off date: safety and tolerability
Procedure: (§5) The dose expansion part of the Phase 1 study was a multicenter, open-label, multiple-dose, first-in-human study of DS-6000a, which enrolled subjects in the United States (see clinicaltrials.gov identifier NCT 04707248). DS-6000a was administered intravenously every 3 weeks. The dose expansion part included administering to RCC and OVC subjects at RDEs. Initially, dose of 8.0 mg/kg was expanded, subsequently, the 6.4, 5.6 and 4.8 mg/kg doses were added as RDEs (FIG. 12).
The primary objective of the dose expansion part was to evaluate the safety, tolerability, and efficacy at the RDEs.
Patient assessments included echocardiogram or multigated acquisition scan, 12-lead electrocardiogram, AEs, PK, human anti-human antibodies, biomarkers, and tumor assessments at prespecified visits.
(§6) Objective response rate (ORR), clinical benefit rate (CBR), and disease control rate (DCR) were summarized with 95% confidence intervals (CI) using the Clopper-Pearson method; duration of response (DOR) and progression-free survival (PFS) were summarized using the Kaplan-Meier method. Safety endpoints, PK parameters and plasma anti-drug antibodies were summarized using descriptive statistics.
(§7) After the initial data-cut, additional patients were enrolled in Phase 1 (both escalation and expansion), bringing the overall number of participants to sixty-seven (N=67). The demographic and baseline characteristics of the patient enrolled in dose escalation and expansion parts of the Phase 1 study as of new cut-off date are shown in FIG. 13. Subjects ranged in age from 34 to 83 years with a median age of 63 years. A median of 4 prior lines of therapy was administered. The prior lines of therapy comprise a platinum-based chemotherapeutic, a chemotherapeutic, a PARP inhibitor, an immune checkpoint inhibitor, an angiogenic inhibitor and a VEGFR-TKI. The subjects were 25.4% RCC, 74.6% OVC and 64.2% had Eastern Cooperative Oncology Group performance status (ECOG PS) of 1.
Subjects had received DS-6000a as monotherapy with a median treatment duration of 15.4 weeks (range 3.0 to 93.9 weeks). The number of patients in the dose escalation and expansion parts of the Phase 1 study as of new cut-off date with TEAE, which occurred in […] of patients, regardless of causality, is shown in FIG. 14.

[4] = system: CA-125; experiment: Phase 1 dose escalation and expansion parts as of new cut-off date: CA-125 response
Excerpt: as §4

[5] = system: OVC subjects; experiment: Phase 1 dose escalation and expansion parts as of new cut-off date: tumor response, ORR and PFS
Procedure: as §5, §6, §7
One confirmed CR and 14 confirmed PR were observed among 44 evaluable OVC subjects at doses ranging from 1.6 to 9.6 mg/kg. SD was reported for 24 subjects (FIG. 17).

[6] = system: RCC and OVC subjects; experiment: Phase 1 dose escalation part: tumor response per RECIST V1.1
Procedure: as §1, §2, §3

[7] = dose escalation and expansion parts, new cut-off date, N=67
[8] = among 44 evaluable OVC subjects, 1.6 to 9.6 mg/kg, new cut-off date
[9] = dose escalation part, among 24 efficacy evaluable patients

## DS-6000a: anti-CDH6 antibody (SEQ ID NO: 69 positions 20-471; SEQ ID NO: 61 positions 21-233) bound via thioether bond to drug linker; DAR 7 to 8
[1]; 1.6 mg/kg
  patients discontinued due to PD per RECIST V1.1: 1 patients
[1]; 3.2 mg/kg
  patients discontinued due to clinical progression: 1 patients
  patients discontinued due to death: One
  patients required dose interruption: 1 patients
[1]; 4.8 mg/kg
  patients discontinued due to clinical progression: 1 patients
  patients required dose interruption: 2 patients
[1]; 6.4 mg/kg
  patients discontinued due to PD per RECIST V1.1: 2 patients
  patients discontinued due to clinical progression: 1 patients
  patients required dose interruption: 3 patients
[1]; 8.0 mg/kg
  patients discontinued due to PD per RECIST V1.1: 2 patients
  patients discontinued due to clinical progression: 1 patients
  patients required dose interruption: 1 patients
  patients required dose reduction: 1 patients
[1]; 9.6 mg/kg
  patients discontinued due to adverse event: One
  patients required dose interruption: 2 patients
  patients required dose reduction: 2 patients
[1]; 9.6 mg/kg, Cycle 1, Gr3 febrile neutropenia and Gr4 platelet count decreased
  DLTs: Two
[1]; Grade 3 anaemia and Grade 3 febrile neutropenia at 9.6 mg/kg
  serious TEAEs considered drug-related: Two
[1]; IV every 3 weeks
  RDE (recommended dose for expansion): 8.0 mg/kg
[1]; N=30
  grade of serious TEAEs: all events are Grade 3
[1]; N=30 (4/30)
  patients with serious TEAEs: 13.3%
[1]; N=30 (7/30), drug-related
  patients reported Grade 23 related TEAE: 23.3%
[1]; N=30 (10/30), regardless of causality
  patients reported Grade 23 TEAE: 33.3%
[1]; N=30 (13 patients)
  patients discontinued from treatment: 43.3%
[1]; N=30 (25 patients)
  patients with drug-related TEAEs: 83.3%
[1]; N=30 (26/30), regardless of causality, IV every 3 weeks
  patients reported 21 TEAE: 86.7%
[1]; N=30, all dose levels
  patients discontinued due to PD per RECIST V1.1: 5 patients
  patients discontinued due to clinical progression: Four
  patients required dose interruption: Nine
  patients required dose reduction: three
[1]; N=30, drug-related
  Grade 23 related TEAE neutrophil count decreased: 16.7%
  related TEAE decreased appetite: 20.0%
  related TEAE fatigue: 56.7%
  related TEAE nausea: 60.0%
  related TEAE neutrophil count decreased: 23.3%
  related TEAE vomiting: 30.0%
[1]; N=30, regardless of causality
  Grade 23 TEAE anaemia: 10.0%
  Grade 23 TEAE hypokalemia: 10.0%
  Grade 23 TEAE neutrophil count decreased: 16.7%
  TEAE decreased appetite: 40.0%
  TEAE diarrhoea: 20.0%
  TEAE fatigue: 63.3%
  TEAE nausea: 60.0%
  TEAE neutrophil count decreased: 23.3%
  TEAE vomiting: 46.7%
[1]; as of data cut off
  tolerability: generally well tolerated
[2]; FIG. 8
  durability of CA-125 responses: durable
[2]; among 17 efficacy evaluable OVC patients, at least 50% reduction in CA-125 from baseline, confirmed and maintained at least 28 days
  patients showed CA-125 responder: 8 patients
[2]; dose level of 4.8 to 9.6 mg/kg
  CA-125 response rates by dose level: Higher CA-125 response rates
[3]; 8.0 mg/kg
  fatal cases: 3
[3]; 8.0 mg/kg, frequent dose reduction/interruption compared to lower doses
  tolerability: not tolerated
[3]; dose escalation and expansion parts, new cut-off date
  doses at which well tolerated: up to 6.4 mg/kg
[3]; [7]
  most frequently reported Grade 23 events: hematological events
  severity of the majority of the gastrointestinal events: Grade 1 or 2
[3]; dose escalation and expansion parts, new cut-off date, N=67, monotherapy
  most frequently reported TEAEs: gastrointestinal events (nausea, vomiting and diarrhea), fatigue, decreased appetite and hematological events (anaemia, neutrophil count decreased and platelet count decreased)
[4]; OVC patients
  CA-125 response rates among dose levels: High CA-125 response rates
[4]; OVC subjects, FIG. 18
  CA-125 reductions: deep and durable
[4]; among 28 efficacy evaluable OVC patients, at least 50% reduction in CA-125 from baseline, confirmed and maintained at least 28 days
  patients showed CA-125 responder: 15 patients
[5]; 4.8 and 6.4 mg/kg compared to 8.0 mg/kg, small sample size
  preliminary efficacy signals by dose: better preliminary efficacy signals
[5]; OVC subjects, 3.2 mg/kg
  median PFS: 13.9 months
[5]; OVC subjects, 4.8 mg/kg
  median PFS: 7.9 months
[5]; OVC subjects, 6.4 mg/kg
  median PFS: 5.8 months
[5]; OVC subjects, 8.0 mg/kg
  median PFS: 5.6 months
[5]; OVC subjects, doses ranging from 1.6 to 9.6 mg/kg
  median PFS: 5.8 months
[5]; OVC subjects, higher dosing group, FIG. 16
  dose-effect on efficacy: consistent and pronounced reduction in tumor size
[5]; OVC subjects, new cut-off date
  ORR compared to current standard of care (single-agent chemotherapies) in platinum resistant ovarian cancer: Higher ORR
  PFS compared to current standard of care (single-agent chemotherapies) in platinum resistant ovarian cancer: Longer PFS
[5]; among 41 evaluable OVC subjects with measurable disease at baseline, 1.6 to 9.6 mg/kg
  ORR: 36.6%
[5]; [8]
  confirmed CR: One
  confirmed PR: 14
[6]; dose escalation part, 8.0 mg/kg
  time stayed in treatment, one patient with SD: more than 180 days
[6]; dose escalation part, 3.2, 4.8, 6.4, 8.0 and 9.6 mg/kg dose levels
  tumor shrinkage in target lesion: Tumor shrinkages were observed
[6]; dose escalation part, FIG. 6
  durability of tumor responses: durable
[6]; dose escalation part, RCC, among 24 efficacy evaluable patients
  PRs based on RECIST V1.1: one
[6]; dose escalation part, a patient in the 9.6 mg/kg dosing group
  best percent change in sum of longest dimensions from baseline (tumor reduction): 68.8%
[6]; [9]
  Non-CR/Non-PDs: 2
  PRs (including single point PRs, not yet confirmed responses) based on RECIST V1.1: 6
  stable diseases (SDs): 12
[6]; dose escalation part, platinum-resistant OVC, among 24 efficacy evaluable patients
  PRs based on RECIST V1.1: five
[6]; one clear cell RCC patient, 3 prior therapies including ICI and VEGFR-TKI, 3.2 mg/kg, 51.4 weeks following initiation of treatment
  maximum decrease in tumor size: 64.3%
[6]; one platinum-resistant OVC patient, 3 prior therapies including bevacizumab and PARP inhibitor, 6.4 mg/kg, 40.4 weeks following initiation of treatment
  maximum decrease in tumor size: 35.7%

— patent US20250082771A1, “DOSAGE REGIMEN OF AN ANTI-CDH6 ANTIBODY-DRUG CONJUGATE” (DAIICHI SANKYO COMPANY, LIMITED, priority 2022, published 2025)
